Measurements reported in patent US6933284 (University of California, dated 2005).

What was measured:
[1] = target: T1, recombinant control LDL without the 'Leu-Leu' mutation (LDL generated by the unmodified apo-B100 P1 … (human, UniProt P04114 28-4563)); assay: gel-mobility shift, data not shown
T1 construct: mature; Tested as an LDL particle
Protocol: (§1) Before the assay, the (^35S)biglycan and (^35S)versican preparations were dialyzed extensively at 4° C. against 10 mM HEPES, 150 mM NaCl, 5 mM CaCl_2, and 2 mM MgCl_2 (pH 7.4, Buffer A), and the protein concentrations were determined (BioRad Laboratories) with bovine gamma globulin as the standard. Increasing concentrations of LDL were incubated with approximately 2000 dpm of (^35S)biglycan or (^35S)versican for 1 h at 37° C. in a total volume of 20 μl of Buffer A. Three microliters of bromophenol blue:glycerol (1:1, v/v) was added to the samples, and 20 μl was loaded into wells of 0.7% NuSieve (FMC BioProducts) agarose gels prepared on Gel-Bond film (FMC BioProducts). Electrophoresis was run for 3 h at 60V with recirculating buffer (10 mM HEPES, 2 mM CaCl_2, 4 mM MgCl_2 pH 7.2) in a cold room. Gels were fixed with 0.1% cetyl pyridium chloride in 70% ethanol for 90 min, air-dried, and exposed to Hyper Film-MP (Amersham Life Sciences) at ^-70° C. The (^35S)biglycan or (^35S)versican complexed to LDL appears as a band at the […] with a Hewlett Packard Scan Jet II cx and ImageQuant software (Molecular Dynamics).
This procedure has the advantages that only microgram quantities of lipoproteins are required and the relative affinity of LDL binding to the proteoglycans can be determined at physiological ionic and pH conditions. […]

[2] = target: T2, RK3359-3369SA LDL (recombinant LDL, human apo-B100 with the arginines of Site B changed to serines and the … (human, UniProt P04114 28-4563)); assay: gel-mobility shift, three independent experiments
T2 construct: mature; Tested as a purified LDL particle from transgenic mouse plasma; Q2153L follows from the statement that R3500Q is the only LDL without the 'Leu-Leu' mutation; also called recombinant LDL with the uncharged Site B
Protocol: as §1, with “The interaction between LDL and biglycan or versican was investigated by a gel-mobility shift assay (Camejo, G. et al. 1993. *J. Biol Chem.* 268:14131–14137). Before” for “Before”
(§2) This procedure has the advantages that only microgram quantities of lipoproteins are required and the relative affinity of LDL binding to the proteoglycans can be determined at physiological ionic and pH conditions. […] Of particular interest was that recombinant K3363E LDL interacted defectively with both versican and biglycan but had normal receptor binding.

[3] = target: T3, K3363E LDL (recombinant LDL, human apo-B100 with glutamic acid for lysine at residue 3363) (human, UniProt P04114 28-4563); assay: gel-mobility shift, three independent experiments
T3 construct: mature; Tested as a purified LDL particle from transgenic mouse plasma
Protocol: as §1, with “The interaction between LDL and biglycan or versican was investigated by a gel-mobility shift assay (Camejo, G. et al. 1993. *J. Biol Chem.* 268:14131–14137). Before” for “Before”
as §2

[4] = target: T4, human plasma LDL (human, UniProt P04114 28-4563, 125I-labeled where used as tracer in the receptor assay); assay: gel-mobility shift, three independent experiments
T4 construct: mature; Native LDL particle; also called normal human plasma LDL
Protocol: as §1, with “The interaction between LDL and biglycan or versican was investigated by a gel-mobility shift assay (Camejo, G. et al. 1993. *J. Biol Chem.* 268:14131–14137). Before” for “Before”
as §2

[5] = target: T5, recombinant control LDL (human apo-B100 with leucine in place of glutamine at position 2153) (human, UniProt P04114 28-4563); assay: summary table, proteoglycan binding (biglycan and versican were the proteoglycans tested)
T5 construct: mature; one apo-B100 per particle, with lipid; also called wild-type recombinant LDL; 'Leu-Leu' apo-B100 LDL

[6] = target: T5, recombinant control LDL (human apo-B100 …); assay: summary table, LDL receptor binding
[7] = target: T3, K3363E LDL (recombinant LDL, human …); assay: summary table, LDL receptor binding
[8] = target: T1, recombinant control LDL without the …; assay: receptor-binding activity, details not given

Measured: binding result

B1: (35S)biglycan from cultured human arterial smooth muscle cells (other, UniProt P21810 38-368, looked up)
chain: DEEASGADTSGVLDPDSVTPTYSAMCPFGCHCHLRVVQCSDLGLKSVPKEISPDTTLLDLQNNDISELRKDDFKGLQHLYALVLVNNKISKIHEKAFSPLRKLQKLYISKNHLVEIPPNLPSSLVELRIHDNRIRKVPKGVFSGLRNMNCIEMGGNPLENSGFEPGAFDGLKLNYLRISEAKLTGIPKDLPETLNELHLDHNKIQAIELEDLLRYSKLYRLGLGHNQIRMIENGSLSFLPTLRELHLDNNKLARVPSGLPDLKLLQVVYLHSNNITKVGVNDFCPMGFGVKRAYYNGISLFNNPVPYWEVQPATFRCVTDRLAIQFGNYKK
modifications: glycosaminoglycan chains metabolically labeled with (35S)SO4
notes: Proteoglycan: core protein with glycosaminoglycan chains; also called pool 3
binds: [1] | [2] | [3] | [4] | [5]

B2: LDL receptor on normal human fibroblasts (receptor)
chain: not shown
notes: whole, on cells; also called LDL receptors
binds: [6] | [7] | [8]
